The record followed here is patent publication US9187525B2, “Methods of treating ophthalmic diseases using NPR-B agonists” (Shire Orphan Therapies GmbH, dated 2015).

Numbered stars: 1 amine (or outer) side, 2 acyl side, 3 side chain; on linkers, the order of the positions; unused ones are H or OH. Square brackets hold non-standard residues; d marks the D form. * marks the point of attachment. cDR = (S)-2-((S)-3-(carboxymethyl)-2-oxopiperazin-1-yl)-5-guanidinopentanoic acid, N=C(N)NCCC[C@@H](C(=O)[*:2])N1CCN([*:1])[C@@H](CC(=O)[*:3])C1=O; Bhp = (2S,4R)-4-(benzyloxy)pyrrolidine-2-carboxylic acid, O=C([C@@H]1C[C@@H](OCc2ccccc2)CN1[*:1])[*:2]; ctb = (S)-2-amino-3-(tert-butylthio)propanoic acid, CC(C)(C)SC[C@@H](N[*:1])C(=O)[*:2]; Npl = (S)-4-methyl-2-(propylamino)pentanoic acid, CCCN([C@@H](CC(C)C)C(=O)[*:2])[*:1]; Sni = (S)-nipecotic acid, O=C([C@H]1CCCN([*:1])C1)[*:2]; Phe(4-Cl) = N[C@@H](Cc1ccc(Cl)cc1)C(=O)O; Phe(4-Me) = Cc1ccc(C[C@H](N)C(=O)O)cc1; Hyp = O=C(O)[C@@H]1C[C@@H](O)CN1; NMeF = CN[C@@H](Cc1ccccc1)C(=O)O; dAoc(2) = CCCCCC[C@@H](N)C(=O)O; Aoc(2) = CCCCCC[C@H](N)C(=O)O; NMeL = CN[C@@H](CC(C)C)C(=O)O; dNle = CCCC[C@@H](N)C(=O)O; dOrn = NCCC[C@@H](N)C(=O)O; dPip = O=C(O)[C@H]1CCCCN1; Octanoyl = CCCCCCCC(=O)*; Hexanoyl = CCCCCC(=O)*

This experiment deals with T1, natriuretic peptide receptor-B (human).
T1 chain: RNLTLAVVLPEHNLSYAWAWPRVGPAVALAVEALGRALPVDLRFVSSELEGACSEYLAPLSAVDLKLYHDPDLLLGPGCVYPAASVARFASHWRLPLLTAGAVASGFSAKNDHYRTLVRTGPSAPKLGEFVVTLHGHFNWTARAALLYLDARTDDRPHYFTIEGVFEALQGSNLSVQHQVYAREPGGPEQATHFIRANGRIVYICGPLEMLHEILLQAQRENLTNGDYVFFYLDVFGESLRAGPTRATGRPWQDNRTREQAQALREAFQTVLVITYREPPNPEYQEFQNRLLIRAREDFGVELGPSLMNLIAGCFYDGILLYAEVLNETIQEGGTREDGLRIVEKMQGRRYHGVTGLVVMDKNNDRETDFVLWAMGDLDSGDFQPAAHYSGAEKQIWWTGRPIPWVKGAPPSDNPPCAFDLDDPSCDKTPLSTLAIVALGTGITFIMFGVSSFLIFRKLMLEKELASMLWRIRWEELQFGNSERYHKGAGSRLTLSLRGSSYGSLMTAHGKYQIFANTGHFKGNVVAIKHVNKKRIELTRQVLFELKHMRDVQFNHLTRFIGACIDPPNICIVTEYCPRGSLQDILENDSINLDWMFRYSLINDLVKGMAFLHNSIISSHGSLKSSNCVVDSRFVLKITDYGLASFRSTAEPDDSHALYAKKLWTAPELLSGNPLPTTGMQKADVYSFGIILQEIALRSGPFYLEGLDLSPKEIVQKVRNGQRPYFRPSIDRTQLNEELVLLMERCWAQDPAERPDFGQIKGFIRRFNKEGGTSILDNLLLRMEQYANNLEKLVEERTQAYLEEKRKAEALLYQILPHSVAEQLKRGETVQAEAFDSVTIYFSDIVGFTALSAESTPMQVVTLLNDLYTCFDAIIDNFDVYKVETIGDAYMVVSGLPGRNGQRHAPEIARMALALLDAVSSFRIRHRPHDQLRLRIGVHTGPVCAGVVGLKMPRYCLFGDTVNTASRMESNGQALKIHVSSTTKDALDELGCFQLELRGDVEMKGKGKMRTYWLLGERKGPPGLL
The experiment can be described thus: cell-based or functional assay.

Regarding Octanoyl-[dA]FGLPL[cDR]I-NH2 [JAL-1037], the “EC50 group, cGMP in GTM-3 cells” value was at most 15 µM. Under Octanoyl-[dA]F[dK]LP[NMeL]DRI-NH2 [JAL-1065] stands at most 5 µM; under XXAFGLKLDRIS (Hex-Ebe-ala-Phe-Gly-Leu-Lys-Leu-Asp-Arg-Ile-Ser-NH2) [JAL-0540], at most 15 µM. Next, Octanoyl-[dA]FGLP[Npl]DRI-NH2 [JAL-1045]: at most 15 µM. Under Octanoyl-[dA]F[dR]L[Hyp]LDRI-NH2 [JAL-1047] stands at most 1 µM; under Hexanoyl-G[dA]FGLKLDRISA-NH2 [JAL-0538], at most 5 µM.

As to Octanoyl-[dA][NMeF][dR]L[Hyp][NMeL]DRI-NH2 [JAL-1085], the “EC50 group, cGMP in GTM-3 cells” value is at most 1 µM.

B1: JAL-1078 (peptide)
peptide: Octanoyl-XF[dR]LP[NMeL]DRI-NH2
modifications: not fully specified (some residues); printed as Occ-pip-Phe-arg-Leu-Pro-Nml-Asp-Arg-Ile-NH2
As for B1, the “EC50 group, cGMP in GTM-3 cells” value is at most 1 µM.

Octanoyl-[dPip]F[dL]L[Hyp]LDRI-NH2 [JAL-1054]: the “EC50 group, cGMP in GTM-3 cells” value was at most 1 µM. Under Octanoyl-[dA][NMeF][dR]LP[NMeL]DRI-NH2 [JAL-1076] stands at most 5 µM. As for Octanoyl-[dA][Phe(4-Cl)][dL]L[Hyp][NMeL]DRI-NH2 [JAL-1043], the “EC50 group, cGMP in GTM-3 cells” value was at most 1 µM. Under Octanoyl-[dA]F[dR]LP[NMeL]DRI-NH2 [JAL-1075] stands at most 5 µM; under Ac-[dAoc(2)][dA][dA]FGLPLDRI-NH2 [JAL-1034], at most 5 µM; under Octanoyl-[dA]F[ctb]L[Hyp]LDRI-NH2 [JAL-1029], at most 5 µM.

As to Octanoyl-[dA]F[dR]LPLDRI-NH2 [JAL-1031], the “EC50 group, cGMP in GTM-3 cells” value is at most 5 µM.

In the case of Octanoyl-[dA]F[dOrn]L[Hyp][NMeL]DRI-NH2 [JAL-1061], the “EC50 group, cGMP in GTM-3 cells” value is at most 1 µM. Under Octanoyl-[dA]F[dNle]L[Hyp][NMeL]DRI-NH2 [JAL-1044] stands at most 1 µM; under Octanoyl-[dA]F[dK]L[Hyp][NMeL]DRI-NH2 [JAL-1060], at most 1 µM. Next, Octanoyl-[dP]F[dL]L[Hyp]LDRI-NH2 [JAL-1053]: at most 1 µM; Octanoyl-[dA][Phe(4-Cl)][dL]L[Hyp]LDRI-NH2 [JAL-1050]: at most 1 µM; Octanoyl-[dPip]FGLPLDRI-NH2 [JAL-1035]: at most 15 µM. In the case of Octanoyl-[Sni]F[dL]L[Hyp][NMeL]DRI-NH2 [JAL-1041], the “EC50 group, cGMP in GTM-3 cells” value is at most 1 µM. Next, Octanoyl-[dA][NMeF][dL]L[Hyp]LDRI-NH2 [JAL-1052]: at most 1 µM; Octanoyl-[dA]F[dD]L[Hyp]LDRI-NH2 [JAL-1048]: at most 15 µM. Under Octanoyl-[dA][Phe(4-Me)][dL]L[Hyp]LDRI-NH2 [JAL-1051] stands at most 5 µM. Under Octanoyl-[dA]F[dR]L[Hyp][NMeL]DRI-NH2 [JAL-1086] stands at most 1 µM; under Octanoyl-[dA]F[dK]LP[NMeL]ARI-NH2 [JAL-1068], at most 15 µM. Take Octanoyl-[dA]F[dK]LPLDRI-NH2 [JAL-1030]: the “EC50 group, cGMP in GTM-3 cells” value is at most 5 µM.

In the case of Octanoyl-[dA]F[dL]LP[NMeL]DRI-NH2 [JAL-1039], the “EC50 group, cGMP in GTM-3 cells” value is at most 1 µM. Next, Hexanoyl-G[dA]FGLKLDRISG-NH2 [JAL-0539]: at most 5 µM.

For Ac-[Aoc(2)][dA][dA]FGLPLDRI-NH2 [JAL-1033], the “EC50 group, cGMP in GTM-3 cells” value was at most 5 µM. Under Octanoyl-[Sni]F[dL]LP[NMeL]DRI-NH2 [JAL-1040] stands at most 1 µM.

With Octanoyl-[dA]F[dL]L[Hyp][NMeL]DRI-NH2 [JAL-1042], the “EC50 group, cGMP in GTM-3 cells” value is at most 1 µM.

B2: JAL-1077 (peptide)
peptide: Octanoyl-X[NMeF][dR]LP[NMeL]DRI-NH2
modifications: not fully specified (some residues); printed as Occ-pip-Nmf-arg-Leu-Pro-Nml-Asp-Arg-Ile-NH2
Regarding B2, the “EC50 group, cGMP in GTM-3 cells” value is at most 1 µM. Next, Octanoyl-[dA]F[dH]LPLDRI-NH2 [JAL-1032]: at most 5 µM.

B3: JAL-1087 (peptide)
peptide: Octanoyl-XF[dR]L[Hyp][NMeL]DRI-NH2
modifications: not fully specified (some residues); printed as Occ-pip-Phe-arg-Leu-Hyp-Nml-Asp-Arg-Ile-NH2
Take B3: the “EC50 group, cGMP in GTM-3 cells” value was at most 1 µM. For the molecule Octanoyl-[dA]FGL[Bhp]LDRI-NH2 [JAL-1038], the “EC50 group, cGMP in GTM-3 cells” value was at most 15 µM.
